Test results reported in patent US20040131612A1 (APPLIED MOLECULAR EVOLUTION, published 2004).
Values joined by “and” are separate entries in the source; they are usually repeats but may differ in a detail not shown here. Identical values can stand only once. Each block holds one binder with its values, some of them ahead of it.

Tests used:
human TNF-α [1] = molecular target: T1, human TNF-α (human, UniProt P01375 77-233); assay: kinetic exclusion assay (KinExA 3000), Fab in solution with human TNF-α; upper end of the range
T1 construct: It was biotinylated in the filter lift and on-rate ELISA; also called hTNF-α; hTNF
T1 sequence (P01375 77-233 limits assumed): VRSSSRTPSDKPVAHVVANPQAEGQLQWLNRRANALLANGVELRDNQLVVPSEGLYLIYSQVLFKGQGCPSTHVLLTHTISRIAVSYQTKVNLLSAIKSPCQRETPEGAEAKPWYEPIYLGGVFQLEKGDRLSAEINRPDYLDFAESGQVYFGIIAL
Description: (§1) Next, binding kinetics of three of the Fab fragments described in Table 4 were determined in a kinetic exclusion assay. Affinity measurements were performed on a KinExA™3000 instrument (Sapidyne Instruments, Inc., Boise, Id.) using Fab fragments (A10K, A9K, and A10P) released from the periplasmic space whose concentration was determined by a quantitative ELISA. Briefly, antigen and antibody fragment were allowed to react in solution and the fraction of unbound reagent was determined by capture and measured on a bead support. Binding kinetics can be determined or calculated from the amount of unbound reagent. For instance, after interaction between TNF-α and a Fab fragment has occurred in solution, binding of the unreacted, free Fab fragment to TNF-α coated beads can be measured on the instrument by detection with a labeled secondary antibody to the Fab fragment (e.g., a goat anti-IgG (heavy and light)). […] A total of 13 tubes were used for each Kd determination. For A10K and A10P, the Fab concentration was 10 pM with the human TNF-α concentration beginning at 160 pM and then serially diluted to 0.078 pM with the final tube containing no human TNF-α. […] After the incubation, the amount of unbound Fab in the equilibrated samples was determined on the KinExA™3000 instrument according to the manufacturer's instructions. Kd values were determined by the instrument software.

human TNF-α [2] = molecular target: T1, human TNF-α; assay: kinetic exclusion assay (KinExA 3000), 40 pM Fab mixed with 400 pM hTNF-α, time course
Description: To measure kₒₙ, individual Fab fragments at a concentration of 40 pM were mixed with 400 pM of hTNF-α. A series of measurements were taken over a time course. The resulting data was used to calculate the kₒₙ with the instrument software. koff was calculated by using the formula Kd=koff/kₒₙ.

human TNF-α [3] = molecular target: T1, human TNF-α; assay: cell-based or functional assay
human TNF-α [4] = molecular target: T1, human TNF-α; assay: kinetic exclusion assay (KinExA 3000), Fab in solution with human TNF-α; lower end of the range
Description: as §1

human TNF-α [5] = molecular target: T1, human TNF-α; assay: calculated from Kd = koff/kon (KinExA data)
Description: Next, binding kinetics of three of the Fab fragments described in Table 4 were determined in a kinetic exclusion assay. Affinity measurements were performed on a KinExA™3000 instrument (Sapidyne Instruments, Inc., Boise, Id.) using Fab fragments (A10K, A9K, and A10P) released from the periplasmic space whose concentration was determined by a quantitative ELISA. Briefly, antigen and antibody fragment were allowed to react in solution and the fraction of unbound reagent was determined by capture and measured on a bead support. Binding kinetics can be determined or calculated from the amount of unbound reagent. For instance, after interaction between TNF-α and a Fab fragment has occurred in solution, binding of the unreacted, free Fab fragment to TNF-α coated beads can be measured on the instrument by detection with a labeled secondary antibody to the Fab fragment (e.g., a goat anti-IgG (heavy and light)). […] After the incubation, the amount of unbound Fab in the equilibrated samples was determined on the KinExA™3000 instrument according to the manufacturer's instructions. Kd values were determined by the instrument software.
To measure kₒₙ, individual Fab fragments at a concentration of 40 pM were mixed with 400 pM of hTNF-α. […] The resulting data was used to calculate the kₒₙ with the instrument software. koff was calculated by using the formula Kd=koff/kₒₙ.

Kd (human TNF-α [1]): ≤ 0.0072 nM | kon (human TNF-α [2]): 3.92e+06 M⁻¹ s⁻¹ and 7.51e+06 M⁻¹ s⁻¹ | L929 cell protection assay, EC50 (human TNF-α [3]): ~0.067 nM | Kd (human TNF-α [4]): ≥ 0.0035 nM | koff (human TNF-α [5]): 1.96e-05 s⁻¹ and 3.76e-05 s⁻¹
B1: A10K Fab fragment (Fab, V domains shown)
VH: EVQLVESGGGLVQPGGSLRLSCAASGFKFSNHWMNWVRQAPGKGLEWVGEIRSKSMNSATHYAESVKGRFTISRDDSKNSLYLQMNSLKTEDTAVYYCARNYYGSTYDHWGQGTLVTVSS
VL: EIVLTQSPDFQSVTPKEKVTITCRASQFVGYSIHWYQQKPDQSPKLLIKYASESRSGVPSRFSGSGSGTDFTLTINSLEAEDAATYYCQQSHSWHFTFGQGTKVEIK
notes: Fab released from the E. coli periplasm; Against hu1: light chain S31Y, M55R
L929 cell protection assay (prevention of TNF-α-mediated cell death), EC50 (human TNF-α [3]): ~0.025 nM

L929 cell protection assay, EC50 (human TNF-α [3]): ~0.0027 nM
B2: A10K IgG (antibody, V domains shown)
VH: B1 VH
VL: B1 VL
